± gives the uncertainty stated by the source.

The data set is described as follows: amyloid nucleation score (Sup35N fusion, yeast selection) (log enrichment); library NNK1; higher = more nucleation; inactive = no reads after selection. A digest of the protocol:
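Peptides of 20 random codons fused to Sup35N were expressed in psi-negative yeast, induced 24 hours with 100 μM copper sulfate, then grown 7 days at 30°C on medium lacking adenine and uracil. Input and output plasmid inserts were Illumina-sequenced. Nucleation score is the DiMSum log enrichment of output over input reads, centred on the mode score of non-aggregating sequences, excluding sequences with under 100 input reads. Random libraries had three technical output replicates.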
Take ICLITVSMYKSRWIFSKKLT: the amyloid nucleation score is -0.073 ± 0.54.
In turn, IAVDTRVGASYVCGSS registered an amyloid nucleation score of -0.535 ± 0.79.
The value for GCILHFHSGRGYIGSRMVGW was 1.31 ± 0.32.
GYFIVALRFSSLVEVNATSC displayed an amyloid nucleation score of 0.658 ± 0.77.
The figure for FFSKNT is -0.041 ± 0.26.
The figure for MHYWGTGKHQINTWNMILFI is 3.95 ± 0.11; for LFLCGGDCYGKFLLCPCLVS it is 0.144 ± 0.9; for NCNSGSNDTGFWQMASRTGL it is 0.071 ± 0.4.
The substance YVWKMIHVYGMTLSDFTFKV gave an amyloid nucleation score of 5.19 ± 0.053.
Take PATMDLIVVPWITVLKEIN: the amyloid nucleation score was -0.451 ± 0.89.
The substance NGEILSTLDDVTMLRIRTTC gave an amyloid nucleation score of 0.071 ± 0.41.
As for QGVGSDVTSIYTV, the amyloid nucleation score is -0.884 ± 2.4.
In turn, QGWKGSC displayed an amyloid nucleation score of -0.385 ± 1.4.
Take GTLRHDVMRQLTFLCYFINL: the amyloid nucleation score amounted to 0.047 ± 0.72.
Take FYLRSSTNEPRENNVNLALY: the amyloid nucleation score is -0.345 ± 1.7.
The figure for SNAIDRAHPYRFGFCVNDVQ is -0.279 ± 0.47; for CSDRVKTLSFCWSPSVVFW it is -0.636 ± 0.95.
In turn, TNHDMAINLVQQLDC had an amyloid nucleation score of 1.67 ± 0.61.
Regarding VLGLGRENSLRVNFYRLCKS, the amyloid nucleation score entry is “inactive”.
ASTYMYGFSYIYMLVNRCEC registered an amyloid nucleation score of 1.59 ± 0.14.
The entry for LELTIRVRNSIVI is “inactive”; for VLQRVQKPLLCMRVLDIYAW it is -0.11 ± 0.43; for SWGQTLTMNNP it is -0.273 ± 0.38.
With MIMLIWVINSLTYGLEGLTA, the amyloid nucleation score is 0.919 ± 0.39.
The figure for FTDTICCIVMQFKPKRSGSS is 4.87 ± 0.088; for TLILVTLMASIRNDTRTSWS it is 0.979 ± 0.54; for GYVDGSRGRGAPNGAMCRCF it is 0.205 ± 0.76.
With YFYDVMNLRCLVFNKSWFVL, the amyloid nucleation score came to 0.119 ± 0.51.
Regarding GRTSCLKRGISKEASLTGS, the amyloid nucleation score is 1.25 ± 0.53.
The value for FVYCNAAIAISSFGTWEPKG was 2.9 ± 0.1; that for EGYYEPVIVI was 0.66 ± 0.47.
The value for VMDVFV was -0.292 ± 0.62.
Regarding GLVFTLWSASRCFFLRKKLW, the amyloid nucleation score is -0.083 ± 0.83.
Take FLQEVITDLKSVW: the amyloid nucleation score amounted to 3.08 ± 0.12.
Turning to YEPDELTWSHCTELTEALML, the amyloid nucleation score is -0.433 ± 0.66.
Consider WLNSEAWDYLATLGLSFNYS, for which the amyloid nucleation score was found to be 0.761 ± 0.75.
GMDTGNITAQSMAGLPRRAS returned an amyloid nucleation score of -0.299 ± 0.49.
The value for TTKAVRCYRNIMCSTILGRS was -0.015 ± 0.31; that for ATSGGYGRFLVIISFDWVGA was -0.34 ± 0.37.
FTVARYKGIYNFSQGRCA showed an amyloid nucleation score of -0.33 ± 1.2.
Turning to NKVLCFK, the amyloid nucleation score result is “inactive”.
The substance ARVPSKYRVEVHGRKKAWRG had an amyloid nucleation score of -0.814 ± 0.6.
VDSLITRSWVDHHNKYNHGI came in with an amyloid nucleation score of 0.635 ± 0.64.
In the case of NYSDLKRGHRLDSADGWDGI, the amyloid nucleation score was -0.613 ± 1.1.
For KAEYSDLASFGCHGHEEGGG, the amyloid nucleation score stood at 0.793 ± 1.
The value for IQFIDRPDHIARRLVWFRIG was 0.351 ± 0.27; that for PLDHLHLSKWCTSEKDLVV was 0.766 ± 0.38.
The figure for GLVNFTVVLTFV is 2.82 ± 0.3; for DRRFRIITHLANSLIWNKWQ it is 0.076 ± 0.49; for DKLDSLIRVLNRLDNL it is -0.316 ± 0.4.
In turn, SYDNLRSRREGPEVVGRRAP returned an amyloid nucleation score of 0.569 ± 0.74.
FESTPLVGHTRASSRYCARF displayed an amyloid nucleation score of -0.742 ± 2.1.
The value for LSVRDVLYGHVRWVGWGGVK was 0.886 ± 0.64; that for DCFYLSIGRIFFHP was 2.92 ± 0.21.
As for LVLSSPRHDMSCSYAHFNMN, the amyloid nucleation score is 1.38 ± 0.43.
Take CFCKGGPVVTRMWEGIYPC: the amyloid nucleation score is -0.014 ± 0.27.
HRCRREYSQSSGSWDESIEN returned an amyloid nucleation score of 1.05 ± 0.14.
In turn, QATYCGLIIPSGLIYPDYTV yielded an amyloid nucleation score of -0.442 ± 0.54.
Take IETSKFRPINVKLVIYCCHG: the amyloid nucleation score stood at 0.499 ± 0.79.
Substance AIVYRQKLISQLYFARLLRH displayed an amyloid nucleation score of 0.063 ± 1.4.
The value for VGVWLFCLAYWE was “inactive”; that for SIGCIYRSSKSGDVSISY was -0.057 ± 0.37; that for LQFGWFMIYLIKFSPNLRGN was -1.18 ± 1.7.
On to HRRLRMRT, for which the amyloid nucleation score was -0.469 ± 0.79.
The figure for YRVVYRKNVDCTMYQFMSRR is 0.539 ± 0.31; for GVNFFGCHCVHN it is -0.113 ± 0.41; for IYRSMNRLVVQEGYAFIGGG it is 2 ± 0.3.
With GYRGLYY, the amyloid nucleation score was found to be 1.38 ± 0.6.
The substance YGTVTGEIIYFLSYLVIMRM registered an amyloid nucleation score of -0.848 ± 0.56.
The value for EIFSNPSVYHESMK was -0.072 ± 1.2; that for CEWFPRHKMYLESVFVYKRL was -0.116 ± 0.56; that for HVSACRNKIHLWSRTHLSGE was 0.83 ± 0.5.
The substance VSDYFG yielded an amyloid nucleation score of 0.229 ± 0.87.
In the case of DKPIV, the amyloid nucleation score was -0.09 ± 0.88.
For CIIMCLRSDPV, the amyloid nucleation score amounted to 0.211 ± 0.3.
The figure for CFWVEMFFSETHMIKNYCIV is 1.27 ± 0.61.
As for TLSLNYRFNLKERFLVSGLI, the amyloid nucleation score was -0.733 ± 0.38.
As to RFSWPWTDYNMKNYA, the amyloid nucleation score is -0.119 ± 0.21.
The figure for KKFEVSL is 0.159 ± 0.68.
Substance MASTMPC returned an amyloid nucleation score of -0.654 ± 1.
As to IWLVQIHVSSSMPTSYPHIS, the amyloid nucleation score was determined as 0.355 ± 1.4.
WFVGGTWQGAMNKGPTFVN gave an amyloid nucleation score of 0.078 ± 0.56.
In turn, FVTQAGRGMHR came in with an amyloid nucleation score of 0.682 ± 0.75.
Turning to SVLIVLMHGMGYQQKTYCRF, the amyloid nucleation score is 0.316 ± 0.48.
The figure for MFVDFTDVRMVYLSLCVYML is 1.25 ± 0.093; for IRLLAKI it is “inactive”; for SNSKK it is 0.009 ± 0.25.
GVRVCSMPFAALLAFLLYFS: the amyloid nucleation score is -1.09 ± 0.76.
In turn, RWLHVIKL displayed an amyloid nucleation score of 2.21 ± 0.35.
SHENSRSNNISSHQP showed an amyloid nucleation score of -0.513 ± 0.34.
The value for RDSHSLMVVGFRYELSQGLK was 0.496 ± 1.1; that for SKIESHFWLVFNIRGSYNKA was 7.298 ± 0.046.
For RFTGQWWYVFSLWAILSRIK, the amyloid nucleation score turned out to be 0.357 ± 0.55.
For the substance TCCDRSRCSESSEGRRFQRT, the amyloid nucleation score was 0.162 ± 0.3.
Consider FNYIFRWLVMGTGSCTGS, for which the amyloid nucleation score was 0.45 ± 0.29.
The substance RYFSRAVACDHNES registered an amyloid nucleation score of -0.547 ± 0.84.
In turn, SFNYRIAFFSRYRPYMGSLG showed an amyloid nucleation score of 1.76 ± 0.37.
In turn, NIVFL showed an amyloid nucleation score of 0.021 ± 0.55.
In turn, VSRYLWIIGRGWVN displayed an amyloid nucleation score of 0.412 ± 0.39.
The value for CSSVAS was 0.113 ± 0.31.
The figure for FLSTCGCFRKLGWVMCECLG is -0.19 ± 0.47; for WRFMRFSSGRFNIGEYI it is -0.431 ± 1.4.
CPWTVMLHFSYDYCARGFKV had an amyloid nucleation score of -0.505 ± 0.57.
The value for RGGRWLMATWMMPGNGCLAA was 0.708 ± 0.52; that for HPLLMYWRRTFVEHRLYLT was 0.031 ± 1.2.
ALSLVISCSGSWRKGRRFLS: the amyloid nucleation score is -0.53 ± 0.64.
In the case of LLCICWLALICCLNSELGSQ, the amyloid nucleation score is -0.675 ± 1.
For KKVFFHKRVLSDARCKPVKS, the amyloid nucleation score was -0.567 ± 0.41.
In turn, YWVCE came in with an amyloid nucleation score of 0.332 ± 0.9.
For WFRYYYLFNRVRTFRERTNF, the amyloid nucleation score was found to be 0.094 ± 1.4.
The value for PLGGLGYV was 0.543 ± 0.73.
Turning to TKFKIAYTCYFNMFHRRLCI, the amyloid nucleation score is -0.374 ± 0.38.
As to RVISPSCKWDQCSPMCS, the amyloid nucleation score was -0.499 ± 1.1.
As for HLYMDSSILRLVEYTWCFKV, the amyloid nucleation score worked out at 0.085 ± 0.96.
The figure for CVFGYCVALHF is 6.18 ± 0.073; for VWVKAMSFFWVIALPHAVYV it is “inactive”; for YSINTCCQLVIIDPGSSYEM it is 6.634 ± 0.047.
As to MYYSIGWKR, the amyloid nucleation score was found to be 1.48 ± 0.8.
RNVGFLFSKRDQPWLKSPGD gave an amyloid nucleation score of -0.983 ± 2.4.
The figure for TSAGKYHSSIILLYLWDYVT is 0.845 ± 0.41.
Consider GNFGWHSLSYRDNYICSWAL, for which the amyloid nucleation score was 4.43 ± 0.068.
Take IVDPWY: the amyloid nucleation score was 2.56 ± 0.12.
Substance PYWTVYGELL returned an amyloid nucleation score of 0.116 ± 0.97.
In turn, GCRPG yielded an amyloid nucleation score of -0.151 ± 0.59.
DFCLNGSYFNTLDNSGCSSL displayed an amyloid nucleation score of -0.114 ± 0.52.
Regarding LSYLGLLP, the amyloid nucleation score was 0.373 ± 0.62.
Take EYTGSEPYLLVQVSLLNQRV: the amyloid nucleation score entry is “inactive”.
FTWWHIRGCGCCVACEGHRS gave an amyloid nucleation score of 0.05 ± 0.65.
CQISI came in with an amyloid nucleation score of -2.17 ± 2.4.
Turning to NAAYRVWMWKSLVRSLGRYK, the amyloid nucleation score was 0.647 ± 0.4.
Regarding SDAITRVIRHMNPFCLTALL, the amyloid nucleation score was -0.928 ± 0.95.
For WLEGLKYKLAVDGRFNQSWG, the amyloid nucleation score is -0.086 ± 0.81.
WKMNGPFDFDPRRMISHDLK: the amyloid nucleation score was -0.158 ± 0.42.
Consider KEYGVSL, for which the amyloid nucleation score is -0.93 ± 0.55.
Consider LRYVKSHSTMAFKLGATPGT, for which the amyloid nucleation score amounted to 0.505 ± 0.66.
As to HSCAFNESHVFMHILCVISQ, the amyloid nucleation score was -0.319 ± 0.44.
Turning to ASPHWGSCNKTLRDGPRQVL, the amyloid nucleation score was -0.677 ± 0.65.
The substance IGSRIKA returned an amyloid nucleation score of 1.04 ± 0.19.
Substance RCGGM registered an amyloid nucleation score of -0.381 ± 0.64.
The figure for MPCFGVQKIYQLDETMPSET is 0.141 ± 0.45.
